Results published in patent US20160046573A1, “IDENTIFYING PATIENT RESPONSE TO S1P RECEPTOR MODULATOR ADMINISTRATION” (Novartis AG, priority 2013, published 2016).

Columns and labels:
[1] = Inhibition of [14C]BAF312 biotransformation in HLM by CYP-specific chemical inhibitors; conditions: for Rate / Relative activity: 5 μM BAF312, HLM 0.1 mg/mL, 90 min
Protocol: The incubations were carried out in 0.1 M phosphate buffer, pH 7.4. Typical incubations of 200 (or 400) μL total volume were prepared as follows: 10 μL of 100 mM MgCl2 (5 mM), stock solutions of CHAPS, substrate and microsomes or recombinant human cytochrome P450 isoenzymes were added to appropriate volume of the buffer. […] Reaction was started by addition of 20 μL of a fresh 10 mM NADPH (1 mM). The final concentrations are given in parentheses. The final concentrations of organic solvent were maximally 0.5% (v/v). For some experiments, higher incubation volumes were prepared by keeping proportionally the quantity of all solutions. The samples were incubated at 37° C. in a thermomixer (Eppendorf 5355) with agitation at 500 rpm.
The incubation reactions were stopped and the protein was precipitated by addition of an equal volume of ice-cold 0.5% formic acid in acetonitrile. After 30 min at −80° C. (or overnight at −20° C.) the samples were centrifuged at 30,000×g for 15 min. The supernatant was withdrawn. Aliquots were analyzed by LSC (20 μL) and the supernatant was diluted appropriately with water to obtain a final solution containing less than 30% of acetonitrile. For samples with lower concentration in substrate, supernatants were evaporated to about the half of initial volumes under reduced pressure at 40° C. with SpeedVac® concentrator (model AES 2010, Savant Inc., Holbrook, N.Y., USA) then mixed with 0.5% formic acid in acetonitrile to obtain a final solution containing less 30% of acetonitrile. Sample solutions were analyzed by HPLC combined with radiodetection. (for HLPC method, see Section 1.6)
The biotransformation of BAF312 was tested at 5 μM substrate concentration in the presence of the 8 individual chemical inhibitors.

[2] = substrate: CCc1cc(/C(C)=N/OCc2ccc(C3CCCCC3)c(C(F)(F)F)c2)ccc1CN1CC(C(=O)O)C1; experiment: Enzyme kinetics of [14C]BAF312 metabolism by rhCYP2C9; format: in vitro ADME, human; conditions: other: CYP 2C9; obtained from kinetic experiments; pH 7.4
Protocol: The concentration-dependent kinetics of [^14C]BAF312 biotransformation (total metabolites) in rhCYP2C9 (50 pmol/mL) after 60 minutes incubation was plotted as Michaelis-Menten plot (upper) and as Eadie-Hofstee plot (V vs. V/S, bottom) fitted with substrate inhibition model using substrate concentrations 5-300 μM.
(§1) Microsomes prepared from baculovirus infected insect cells (BTI-TN-5B1-4) expressing the following human P450 enzymes and the insect cell membrane preparations (negative control) were obtained from BD Biosciences (Woburn, Mass., USA).
(§2) The final concentrations are given in parentheses.
(§3) After 30 min at −80° C. […] The supernatant was withdrawn. […] Sample solutions were analyzed by HPLC combined with radiodetection. (for HLPC method, see Section 1.6)
Enzyme kinetic parameters Vmax and Km of the biotransformation by HLM and major metabolizing enzymes were calculated by using SigmaPlot Version 8.0 (S1), Enzyme Kinetics module Version 1.1 software (SPSS Science Inc., Chicago, Ill., USA). The intrinsic clearance was calculated by the equation: CLint=Vmax/Km.
Enzyme kinetics parameters of the isoenzymes CYP2C9 and CYP3A4 for BAF312 metabolism were determined by incubating different concentrations of [^14C]BAF312 with the isoenzyme.

[3] = substrate: CCc1cc(/C(C)=N/OCc2ccc(C3CCCCC3)c(C(F)(F)F)c2)ccc1CN1CC(C(=O)O)C1; experiment: Enzyme mapping: metabolite formation by recombinant P450 isoenzyme; format: in vitro ADME, human; conditions: estimated by solving the Michaelis-Menten equation for the 2 substrate concentrations, pH 7.4
Protocol: as §1, §2, §3
Mean specific CYP enzyme concentrations in human liver microsomes were obtained from literature values (Rowland Yeo K, Rostami-Hodjegan A and Trucker GT (2004)] Abundance of cytochromes P450 in human liver: a meta-analysis. Br. J. Clinical Pharmacology; 57:687-688). For some recombinant human CYPs, the enzyme kinetic parameters were estimated by calculation assuming Michaelis-Menten type behavior for the two concentrations used, solving a linear equation system for 2 linear equations with 2 variables: […]
Microsomes prepared from baculovirus infected insect cells (BTI-TN-5B1-4) expressing one single human cytochrome P450 isoenzyme were used to assess the involvement of specific enzymes in the biotransformation of [14C]BAF312. Incubation experiments with a panel of 21 recombinant human CYPs (CYP1A1, 1A2, 1B1, 2A6, 2B6, 2C8, 2C9*1, 2C18, 2C19, 2D6*1, 2E1, 2J2, 3A4, 3A5, 3A7, 4A11, 4F2, 4F3A, 4F3B, 4F12 and CYP19) were conducted under similar conditions for each isoenzyme with 10 and 40 μM BAF312 incubation and 30 pmol CYP/mL for 30 min. […] Lower metabolism activities were also observed in incubation with CYP3A4, while some trace metabolism was detected with other CYP isoenzymes (2B6, 2C8, 2C19, 2J2, 3A5, 1A1).

Molecule `S=P(N1CC1)(N1CC1)N1CC1` [Triethylenethiophosphoramide] has a Rate ([1]; 5 μM inhibitor) of 18.3 pmol/min/mg, a Relative activity ([1]; 5 μM inhibitor) of 106% and a Rate ([1]; 20 μM inhibitor) of 18.8 pmol/min/mg. The Relative activity ([1]; 20 μM inhibitor) was 109%.

In the case of `N[C@@H]1C[C@H]1c1ccccc1` (racemic) [Tranylcypromine], the “inhibition of BAF312 metabolism” value ([1]; 2 μM and 10 μM inhibitor, 5 μM substrate concentration, HLM) is reported as 11-29%, the Rate ([1]; 2 μM inhibitor) is reported as 15.3 pmol/min/mg and the Relative activity ([1]; 2 μM inhibitor) is reported as 89%. For the same molecule, the Rate ([1]; 10 μM inhibitor) was 12.2 pmol/min/mg and the Relative activity ([1]; 10 μM inhibitor) was 71%.

B1: rhCYP2C9 (Homo sapiens) (protein)
chain: MDSLVVLVLCLSCLLLLSLWRQSSGRGKLPPGPTPLPVIGNILQIGIKDISKSLTNLSKVYGPVFTLYFGLKPIVVLHGYEAVKEALIDLGEEFSGRGIFPLAERANRGFGIVFSNGKKWKEIRRFSLMTLRNFGMGKRSIEDRVQEEARCLVEELRKTKASPCDPTFILGCAPCNVICSIIFHKRFDYKDQQFLNLMEKLNENIKILSSPWIQICNNFSPIIDYFPGTHNKLLKNVAFMKSYILEKVKEHQESMDMNNPQDFIDCFLMKMEKEKHNQPSEFTIESLENTAVDLFGAGTETTSTTLRYALLLLLKHPEVTAKVQEEIERVIGRNRSPCMQDRSHMPYTDAVVHEVQRYIDLLPTSLPHAVTCDIKFRNYLIPKGTTILISLTSVLHDNKEFPNPEMFDPHHFLDEGGNFKKSKYFMPFSAGKRICVGEALAGMELFLFLTSILQNFNLKSLVDPKNLDTTPVVNGFASVPPFYQLCFIPV
notes: purchased BD Biosciences 456258; host or cells: baculovirus infected insect cells (BTI-TN-5B1-4)
B1 showed a Km [2] of 34.5 µM, a kcat [2] of 2596 ± 233 pmol/min/nmol and a kcat/Km [2] of 1250 M⁻¹ s⁻¹.

B2: CYP1A1 (Homo sapiens) (protein)
chain: MLFPISMSATEFLLASVIFCLVFWVIRASRPQVPKGLKNPPGPWGWPLIGHMLTLGKNPHLALSRMSQQYGDVLQIRIGSTPVVVLSGLDTIRQALVRQGDDFKGRPDLYTFTLISNGQSMSFSPDSGPVWAARRRLAQNGLKSFSIASDPASSTSCYLEEHVSKEAEVLISTLQELMAGPGHFNPYRYVVVSVTNVICAICFGRRYDHNHQELLSLVNLNNNFGEVVGSGNPADFIPILRYLPNPSLNAFKDLNEKFYSFMQKMVKEHYKTFEKGHIRDITDSLIEHCQEKQLDENANVQLSDEKIINIVLDLFGAGFDTVTTAISWSLMYLVMNPRVQRKIQEELDTVIGRSRRPRLSDRSHLPYMEAFILETFRHSSFVPFTIPHSTTRDTSLKGFYIPKGRCVFVNQWQINHDQKLWVNPSEFLPERFLTPDGAIDKVLSEKVIIFGMGKRKCIGETIARWEVFLFLAILLQRVEFSVPLGVKVDMTPIYGLTMKHACCEHFQMQLRS
notes: purchased BD Biosciences 456211; host or cells: baculovirus infected insect cells (BTI-TN-5B1-4)
With B2 the Km ([3]; other: CYP 1A1) was 25.5 µM, the kcat ([3]; other: CYP 1A1) was 47.3 pmol/(min · nmol CYP) and the kcat/Km ([3]; other: CYP 1A1) was 1.9 μL/(min. · nmol CYP).

B3: CYP2J2 (Homo sapiens) (protein)
chain: MLAAMGSLAAALWAVVHPRTLLLGTVAFLLAADFLKRRRPKNYPPGPWRLPFLGNFFLVDFEQSHLEVQLFVKKYGNLFSLELGDISAVLITGLPLIKEALIHMDQNFGNRPVTPMREHIFKKNGLIMSSGQAWKEQRRFTLTALRNFGLGKKSLEERIQEEAQHLTEAIKEENGQPFDPHFKINNAVSNIICSITFGERFEYQDSWFQQLLKLLDEVTYLEASKTCQLYNVFPWIMKFLPGPHQTLFSNWKKLKLFVSHMIDKHRKDWNPAETRDFIDAYLKEMSKHTGNPTSSFHEENLICSTLDLFFAGTETTSTTLRWALLYMALYPEIQEKVQAEIDRVIGQGQQPSTAARESMPYTNAVIHEVQRMGNIIPLNVPREVTVDTTLAGYHLPKGTMILTNLTALHRDPTEWATPDTFNPDHFLENGQFKKREAFMPFSIGKRACLGEQLARTELFIFFTSLMQKFTFRPPNNEKLSLKFRMGITISPVSHRLCAVPQV
notes: purchased BD Biosciences 456264; host or cells: baculovirus infected insect cells (BTI-TN-5B1-4)
In the case of B3, the Km ([3]; other: CYP 2J2) is reported as 374 µM, the kcat ([3]; other: CYP 2J2) is reported as 106.7 pmol/(min · nmol CYP) and the kcat/Km ([3]; other: CYP 2J2) is reported as 0.3 μL/(min. · nmol CYP).

B4: CYP2C8 (Homo sapiens) (protein)
chain: MEPFVVLVLCLSFMLLFSLWRQSCRRRKLPPGPTPLPIIGNMLQIDVKDICKSFTNFSKVYGPVFTVYFGMNPIVVFHGYEAVKEALIDNGEEFSGRGNSPISQRITKGLGIISSNGKRWKEIRRFSLTTLRNFGMGKRSIEDRVQEEAHCLVEELRKTKASPCDPTFILGCAPCNVICSVVFQKRFDYKDQNFLTLMKRFNENFRILNSPWIQVCNNFPLLIDCFPGTHNKVLKNVALTRSYIREKVKEHQASLDVNNPRDFIDCFLIKMEQEKDNQKSEFNIENLVGTVADLFVAGTETTSTTLRYGLLLLLKHPEVTAKVQEEIDHVIGRHRSPCMQDRSHMPYTDAVVHEIQRYSDLVPTGVPHAVTTDTKFRNYLIPKGTTIMALLTSVLHDDKEFPNPNIFDPGHFLDKNGNFKKSDYFMPFSAGKRICAGEGLARMELFLFLTTILQNFNLKSVDDLKNLNTTAVTKGIVSLPPSYQICFIPV
notes: purchased BD Biosciences 456252; host or cells: baculovirus infected insect cells (BTI-TN-5B1-4)
In the case of B4, the Km ([3]; other: CYP 2C8) is reported as 2.9 µM, the kcat ([3]; other: CYP 2C8) is reported as 14.3 pmol/(min · nmol CYP) and the kcat/Km ([3]; other: CYP 2C8) is reported as 5 μL/(min. · nmol CYP).

B5: CYP2C19 (Homo sapiens) (protein)
chain: MDPFVVLVLCLSCLLLLSIWRQSSGRGKLPPGPTPLPVIGNILQIDIKDVSKSLTNLSKIYGPVFTLYFGLERMVVLHGYEVVKEALIDLGEEFSGRGHFPLAERANRGFGIVFSNGKRWKEIRRFSLMTLRNFGMGKRSIEDRVQEEARCLVEELRKTKASPCDPTFILGCAPCNVICSIIFQKRFDYKDQQFLNLMEKLNENIRIVSTPWIQICNNFPTIIDYFPGTHNKLLKNLAFMESDILEKVKEHQESMDINNPRDFIDCFLIKMEKEKQNQQSEFTIENLVITAADLLGAGTETTSTTLRYALLLLLKHPEVTAKVQEEIERVIGRNRSPCMQDRGHMPYTDAVVHEVQRYIDLIPTSLPHAVTCDVKFRNYLIPKGTTILTSLTSVLHDNKEFPNPEMFDPRHFLDEGGNFKKSNYFMPFSAGKRICVGEGLARMELFLFLTFILQNFNLKSLIDPKDLDTTPVVNGFASVPPFYQLCFIPV
notes: purchased BD Biosciences 456259; host or cells: baculovirus infected insect cells (BTI-TN-5B1-4)
With B5 the Km ([3]; other: CYP 2C19) was 140 µM, the kcat ([3]; other: CYP 2C19) was 100 pmol/(min · nmol CYP) and the kcat/Km ([3]; other: CYP 2C19) was 0.7 μL/(min. · nmol CYP).
